Here are results for 3 substances from US20220220204A1.

For experiment [1], the target named is human LAG-3 (LAG-3 effector Jurkat T cells) (human) (UniProt P18627). Description: cell-based or functional assay.
Experiment [2] concerns the target human PD-L1 (PD-L1 aAPC/CHO-K1 cells) (human) (UniProt Q9NZQ7). Description: cell-based or functional assay.
In a further experiment the target is PD-L1 (UniProt Q9NZQ7). The experiment is described as follows: FACS binding. (In general: A flow cytometer gives signals particle by particle.)
PD-L1, sequence (Q9NZQ7 19-290): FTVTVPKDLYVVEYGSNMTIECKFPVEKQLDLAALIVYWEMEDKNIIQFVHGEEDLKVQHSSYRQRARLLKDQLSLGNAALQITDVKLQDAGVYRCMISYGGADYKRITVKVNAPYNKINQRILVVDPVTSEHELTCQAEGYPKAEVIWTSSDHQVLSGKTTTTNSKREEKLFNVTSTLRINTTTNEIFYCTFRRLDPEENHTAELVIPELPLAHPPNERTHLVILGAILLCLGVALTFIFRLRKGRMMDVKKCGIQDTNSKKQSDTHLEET

human PD-L1 (PD-L1 aAPC/CHO-K1 cells) (human), sequence (Q9NZQ7 19-290): as above
human LAG-3 (LAG-3 effector Jurkat T cells) (human), sequence (P18627 23-525): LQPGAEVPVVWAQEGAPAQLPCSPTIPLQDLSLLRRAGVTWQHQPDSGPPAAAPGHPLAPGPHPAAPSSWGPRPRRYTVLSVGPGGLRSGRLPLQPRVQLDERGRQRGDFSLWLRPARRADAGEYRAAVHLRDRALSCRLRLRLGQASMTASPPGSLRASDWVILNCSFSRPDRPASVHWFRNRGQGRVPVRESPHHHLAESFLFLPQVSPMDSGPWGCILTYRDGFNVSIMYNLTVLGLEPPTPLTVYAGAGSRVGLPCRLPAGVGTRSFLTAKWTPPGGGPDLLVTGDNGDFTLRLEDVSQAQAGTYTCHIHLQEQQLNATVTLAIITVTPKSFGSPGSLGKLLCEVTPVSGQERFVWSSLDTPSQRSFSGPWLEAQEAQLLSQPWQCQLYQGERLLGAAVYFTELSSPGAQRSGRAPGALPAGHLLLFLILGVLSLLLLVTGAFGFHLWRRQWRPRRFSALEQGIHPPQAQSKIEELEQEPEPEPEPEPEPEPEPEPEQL

In experiment [1], 25F7 biosimilar (antibody) displayed a Bottom (LAG-3 blockade bioassay) of 312000, a Log EC50 (LAG-3 blockade bioassay) of 0.841 and a Top (LAG-3 blockade bioassay) of 918000.

In the case of Tecentriq biosimilar (antibody), in experiment [2], the Bottom (PD-1/PD-L1 blockade bioassay) amounted to 28700, the EC50 (PD-1/PD-L1 blockade bioassay) came to 0.342, the Log EC50 (PD-1/PD-L1 blockade bioassay) was -0.467 and the Top (PD-1/PD-L1 blockade bioassay) worked out at 117000.

Usually EC50 stands for the concentration at which the effect is half-maximal. Higher therefore signals weaker potency. For the substance human IgG, the EC50 with PD-L1 was 8.88 pM.
